These results are taken from US20050049402A1 (Amgen, published 2005).

T1: p75-hFc construct (R&D Systems) (UniProt P20333 23-257)
T1 construct: Described as similar to etanercept (Enbrel); also called p75s-hFc; Etanercept surrogate
T1 sequence (looked up): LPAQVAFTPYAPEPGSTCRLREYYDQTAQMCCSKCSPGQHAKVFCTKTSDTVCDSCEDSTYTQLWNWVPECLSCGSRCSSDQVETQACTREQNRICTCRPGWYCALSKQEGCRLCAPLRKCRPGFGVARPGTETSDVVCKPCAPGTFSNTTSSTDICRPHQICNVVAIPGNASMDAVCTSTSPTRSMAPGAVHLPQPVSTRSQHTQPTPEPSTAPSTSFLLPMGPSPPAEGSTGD

T2: p55-hFc (R&D) (UniProt P19438 30-211, limits assumed)
T2 construct: Bought reagent; also called TNFα receptor p55-hFc
T2 sequence (looked up): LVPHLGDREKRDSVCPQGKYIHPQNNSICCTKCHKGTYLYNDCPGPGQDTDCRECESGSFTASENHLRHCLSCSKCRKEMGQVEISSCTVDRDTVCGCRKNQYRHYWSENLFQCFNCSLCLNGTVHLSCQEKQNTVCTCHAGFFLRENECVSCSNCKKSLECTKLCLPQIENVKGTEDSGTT

B1: H/M BglI chimeric TNFα (human 1-36, murine 37-157) (ligand)
chain: VRSSSRTPSDKPVAHVVANPQAEGQLQWLNRRANALLANGMDLKDNQLVVPADGLYLVYSQVLFKGQGCPDYVLLTHTVSRFAISYQEKVNLLSAVKSPCPKDTPEGAELKPWYEPIYLGGVFQLEKGDQLSAEVNLPKYLDFAESGQVYFGVIAL
notes: Murine range is printed as 37-157 in human-aligned numbering; also called H/MBgl1; Hu/MBgl1
B2: Rabbit R014 Fab (Fab, V domains shown)
VH: QSLEESGGRLVTPGTPLTLTCTVSGIDLSSNTMGWFRRAPGKGLEWIGIIISSGTTYYASWVKGRFTISKTSTTVDLKITRPTTEDTATYFCARGWYEFNLWGPGTLVTVSS
VL: DVVMTQTPASVEAAVGGTVTIKCQASENIDILLAWYQQKVGQPPKLLIYRASKLASGAPSRFSGSGSGTEFTLTISDLECGDAATYYCQSNVGSTARSSYGNAFGGGTEVVVK
notes: Fab made by papain cleavage of R014
B3: 299v1 (antibody, human IgG1, V domains shown)
VH: QVQLVESGGGVVQPGRSLRLSCAASGFTFSSYDMHWVRQAPGKGLEWVAVIWSDGSIKYYADSVKGRFTISRDNSKNTLYLQMNSLRAEDTAVYYCAREVESAMGGFYYNGMDVWGQGATVTVSS
VL: DIQMTQSPSSLSASVGDRVTITCRASQGIRIDLGWYQQKPGKAPKRLIYAASTLQSGVPSRFSGSGSGTEFIFTISSLQPEDFASYYCLQHKSYPLTFGGGTKVEIK
notes: XENOMAX derived, recombinant human IgG1 kappa; also called SC299V1
B4: 4.17 g1 (antibody, human IgG1, V domains shown)
VH: QVQLVESGGGVVQPGRSLRLSCTTSGFTFSNYGMHWVRQAPGKGLEWVAVIWYDGSIKYYVDSVKGRFTISRDNSKNTLYLQMNSLRAEDTAVYYCAREKDCGGDCYSHYGMDVWGQGTTVTVSS
VL: B3 VL with I31N, T53S, I72T, F73L, S85T, K92M, Y94L
B5: 282 (antibody, human IgG1, V domains shown)
VH: QVQLVESGGGVVQPGRSLRLSCAASGFTVSSYGMHWVRQAPGKGLEWVAVIWSNGSNKYYADSVKGRFTISRDNSKNTLYLQMNSLRAEDTAVYYCARDNGVYVGYAYYYGMDVWGQGTTVTVSS
VL: B3 VL with I31N, T53S, Q55H, I72T, F73L, S85T, K92N, L96W, G100Q
notes: XENOMAX derived, recombinant human IgG1 kappa; also called 282 Ab; SC282
B6: 313 (antibody, human IgG1, V domains shown)
VH: QVQLVESGGGVVQPGRSLRLSCAASGFTFSNHDIHWVRQAPGKGLEWVAVIWSDGSNKYYADSVKGRFTISRDNSKNTLYLQMNSLRAEDTAVYYCAREKMATIKGYYYYGMDVWGQGTTVTVSS
VL: B3 VL with I31N, T53S, Q55E, T69P, I72T, F73L, S85T, K92N, K107Q
notes: Recombinant human IgG1 kappa; also called 313 Ab; SC313
B7: 291 (antibody, human IgG1, V domains shown)
VH: QVQLVESGGSVVQPGRSLRLSCAASGFTFSNYGIHWVRQAPGKGLEWVAVIWSDGSNKYYADSVKGRFTISRDNSKNTLYLQMNSLRAEDTAVYYCARELPNSGSYSGYYYYYGMDVWGQGTTVTVSS
VL: B3 VL with I31N, T53S, I72T, F73L, S85T, K92C, S93C
notes: XENOMAX derived, recombinant human IgG1 kappa; also called 291 Ab; SC291
B8: 3.2 g1 (antibody, human IgG1, V domains shown)
VH: EVQLVQSGAEVKKPGESLKISCKTSEYSFTSYWIGWVRQMPGKGLEWMGIIYLGDSDTRYSPSFQGQVTISADKSISTAYLQWSSLKASDTAMYYCARSNWGLDYWGQGTLVTVSS
VL: QSVLTQPPSVSGAPGQRVTISCTGSSSNIGAGYDVHWYQQFPGTAPKLLIQGNSNRPSGVPDRFSGSKSGTSASLAITGLQAEDEADYYCQSYDSSLSGSVFGGGTKLTVL
B9: H/M PvuII chimeric TNFα (human 1-125, murine 126-157) (ligand)
chain: VRSSSRTPSDKPVAHVVANPQAEGQLQWLNRRANALLANGVELRDNQLVVPSEGLYLIYSQVLFKGQGCPSTHVLLTHTISRIAVSYQTKVNLLSAIKSPCQRETPEGAEAKPWYEPIYLGGVFQLEKGDQLSAEVNLPKYLDFAESGQVYFGVIAL
notes: also called Hu/M PVu11
B10: H/M HincII chimeric TNFα (human 1-91, murine 92-157) (ligand)
chain: B9 chain with I97V, Q102P, R103K, E104D, A111L
notes: Murine range printed 92-157 (human-aligned); also called Hu/M Hin C l1
B11: 250 (antibody, human IgG1, V domains shown)
VH: EVQLVESGGGLIQPGGSLRLSCAASGFTVSSNYMSWVRQAPGKGLEWVSVIYSGDRTYYADSVKGRFTISRDNSKNTLYLQMNSLRAEDTAVYYCARGEGGFDYWGQGTLVTVSS
VL: EIVMTQSPATLSVSPGERATLSCRASQSVTSNLAWYQQKPGQAPRLLIHGASIRATGLPARFSGSGSGTEFTLTISSLQSEDFAVYYCQQYNYWWTFGQGTKVEIK
notes: XENOMAX derived, recombinant human IgG1 kappa; also called 250Ab; SC250
B12: 269 (antibody, human IgG1, V domains shown)
VH: B11 VH with G26E, S31R
VL: B11 VL with T30S
notes: XENOMAX derived, recombinant human IgG1 kappa; also called 269Ab; SC269

Substitutions are numbered along the chain they refer to.

For test [1], the target named is T1, p75-hFc construct (R&D Systems). The test can be described thus: receptor-Fc binding to TNFα constructs.
The target in the next test is T2, p55-hFc (R&D). The test can be described thus: receptor-Fc binding to TNFα constructs.
In test [2] the target is T3, human TNFα (Tumor Necrosis Factor-alpha), soluble (human, UniProt P01375 77-233).
T3 construct: Recombinant (R&D 210-TA/CF) in screens; biotinylated in the limited antigen assay; also called hTNFα; H-TNFα
The test can be described thus: KinExA, Fab from papain cleavage. As for the experimental part: (§1) The kinetic measurements of the anti-TNFα antibodies were evaluated using KinExA® and BIACORE® technologies. The KinExA® method involves solution-based determination of formal affinity measurements at equilibrium. To measure the binding kinetics of each human anti-TNFα antibody, two experiments in replicates of three were performed. In both experiments a known concentration of antigen was titrated and a different antibody concentration was added to each antigen titration and allowed to reach binding equilibrium. […] The results were analyzed by dual curve analysis. […] In addition, to negate the possibility of avidity effects, Fab fragments were generated by papain cleavage and the kinetic analysis was repeated (see Table 24).
Background: In KinExA the mixture passes briefly over coated beads that capture the unbound partner.

Test [3] concerns the target T3, human TNFα (Tumor Necrosis …). The test can be described thus: KinExA, TNFα counted as three monomers. As for the experimental part: as §1
For test [4] the target is unchanged. The test can be described thus: KinExA, TNFα counted as one trimer. The procedure:
as §1

Test [5] has the same target. As to the kind of experiment: cell-based or functional assay.
The target is the same in test [6]. The test can be described thus: ELISA on chimeric/mutant TNFα. The source says: (§2) In order to define the binding site for different antibodies, a number of residues of hTNFα were mutated using site directed mutagenesis. A panel of antibodies was screened for binding by an ELISA assay. […] Histidine at position 73 was deleted, an example is illustrated in Table 19.
A general note: An ELISA detects its analyte on a solid surface through an enzyme-linked reagent.

Test [7] concerns the target human TNFα R31Q, Q27E mutant (human, UniProt P01375 77-233). The test can be described thus: ELISA on chimeric/mutant TNFα.
Text: as §2

The target of the next test is human TNFα R31Q mutant (human, UniProt P01375 77-233). The test can be described thus: ELISA on chimeric/mutant TNFα.
Text: as §2

For test [8], the target named is T4, human TNFα with histidine 73 deleted (human, UniProt P01375 77-233).
T4 construct: Deletion of His73 written as two joined ranges; also called His 73del
As to the kind of experiment: ELISA on chimeric/mutant TNFα.
Text: as §2

Another test concerns the target human TNFα R131Q mutant (human, UniProt P01375 77-233). As to the kind of experiment: ELISA on chimeric/mutant TNFα.
Text: as §2

Test [9] deals with B10. The test can be described thus: ELISA on chimeric/mutant TNFα.
Text: as §2

The target in test [10] is B9. As to the kind of experiment: ELISA on chimeric/mutant TNFα.
Text: as §2

The target in test [11] is B1. The test can be described thus: ELISA on chimeric/mutant TNFα.
Text: as §2

T4 sequence (P01375 other isoform, or with tags, fused parts or gaps): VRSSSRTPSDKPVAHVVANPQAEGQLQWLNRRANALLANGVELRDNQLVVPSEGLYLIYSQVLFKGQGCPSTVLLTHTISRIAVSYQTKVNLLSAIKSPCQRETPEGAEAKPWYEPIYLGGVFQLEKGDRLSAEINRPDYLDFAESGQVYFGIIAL

As for B1, the binding result (in test [1]; with p55-hFc (R&D)) was “binds” each time.
B2: in test [2], the Kd was 0.638 pM, the “Kd (M) High” value was 1.94e-10 M and the “Kd (M) Low” value is 2.09e-15 M.
With B3, in test [3], the Kd was 1.89 pM, the “Kd (M) High” value is 2.76e-12 M and the “Kd (M) Low” value is 1.29e-12 M. In test [4], the Kd stood at 0.63 pM, the “Kd (M) High” value was determined as 9.2e-13 M and the “Kd (M) Low” value came out at 4.3e-13 M.
Take B4: in test [5], the “IC50 1 hr Pre-incubation, TNF induced apoptosis in MCF-7 cells” value was determined as 256 pM and the “IC50 18 hr Pre-incubation, TNF induced apoptosis in MCF-7 cells” value turned out to be 40.4 pM.
For B5, the binding result (in test [6]; in [7]; in the test with human TNFα R31Q mutant; in test [8]; with human TNFα R131Q mutant) was “binds” each time.
Turning to B6, the binding result was “binds” in test [9]; “binds” in test [6]; “binds” in test [10]; “no binding” with human TNFα R31Q mutant; “binds” in test [8]; “binds” in test [11]. Further, the binding result with human TNFα R131Q mutant is given as “binds”.
For the molecule B7, the binding result in test [9] is “binds”; in test [10], “binds”; with human TNFα R31Q mutant it was “no binding”; in test [11], “binds”; in the test with human TNFα R131Q mutant, “binds”.
As to B8, in test [5], the “IC50 1 hr Pre-incubation, TNF induced apoptosis in MCF-7 cells” value turned out to be 93.8 pM and the “IC50 18 hr Pre-incubation, TNF induced apoptosis in MCF-7 cells” value is 38.6 pM.
As to B9, the binding result (in [1]; with p55-hFc (R&D)) was “binds” each time.
For B10, the binding result (in test [1]; in the test with p55-hFc (R&D)) was “binds” each time.
B11: the binding result (in test [6]; in [7]; in the test with human TNFα R31Q mutant; in [8]; with human TNFα R131Q mutant) was “binds” in each case.
As for B12, the binding result (in [6]; in test [7]; with human TNFα R31Q mutant; in test [8]; with human TNFα R131Q mutant) was “binds” each time.

The term Kd denotes the free concentration of one partner at which half of the binding sites on the other are occupied at equilibrium, for simple one-to-one binding. A lower Kd goes with a tighter complex.
